Measurements: patent US20200354728

Experiments:
[1] = system: MmsR (LysR-type transcriptional regulator) (Pseudomonas denitrificans); assay: cell_activity; conditions: GFP reporter; 25 mM 3-HP; 2.6 to 90.2 x10^3 AU/OD
[2] = system: MmsR (LysR-type transcriptional regulator) (Pseudomonas denitrificans); assay: EMSA; conditions: per monomeric MmsR
[3] = system: HpdR (LysR-type transcriptional regulator, 304 aa) (Pseudomonas denitrificans); assay: cell_activity; conditions: hpdH mRNA by 3-HP in wild type; 1.20 in hpdR deletion; 60.5 on complementation

| Sequence | Kd ([2]; no 3-HP) [nM] | Kd ([2]; with 3-HP (25 mM)) [nM] | also measured |
| --- | --- | --- | --- |
| CCTCGAATGTGCAAAAACGCAGACCATACTTGCACATCACCGCATTGAGTACATCAAAAATGCACTGTTAGGATCGATCCAGACAACAAAAAAGCCACAGGCTGGGAGAATCCCG (double strand) [BS_wt (PmmsA reporter)] | – | – | activity (fold induction) [1]: 34.6 |
| GTCAGCCTCAGCGCACCTCGAATGTGCAAAAACGCAGACCACTTGCACATCACCGCATTGAGTACATCAAAAATCACTGTTAGGATCGATCCAGACAACAAAAAAGCCACAGGCTGGGAGAATCCCG (double strand) [F12 (PmmsA, intact O1 and O2)] | – | – | Kd ([2]; no 3-HP, 0.4 nM DNA): 10.7 nM; Kd ([2]; with 3-HP (25 mM), 0.4 nM DNA): 5.4 nM |
| GTCAGCCTCAGCGCACCTCGAATGTGCAAAAACGCAGACCATACTTGCACATCACCGCATTGAGTACATCAATCCTTGCTTGTTAGGATCGCGCCCAGGCACAAAAAAGCCACAGGCTGGGAGAATCCCG (double strand) [F12M (O2 mutated)] | 18.6 | 19.8 | – |
| GTCAGCCTCAGCGCACCTCGATCCTTGCTAAACGCAGACCATACCGCCCAGGCACCGCATTGAGTACATCAAAAATGCACTGTTAGGATCGATCCAGACAACAAAAAAGCCACAGGCTGGGAGAATCCCG (double strand) [F1M2 (O1 mutated)] | 79.8 | 316 | – |
| TGTGGGAGCGGGCGTGCCCGCGAAGAGGCCAGCACAGACTTACCACTGTGCTAAAACGCACAGCGGCTGCGCGAAATCTCGTGTTTCCTCCACGAAATTACTCACTAAGATGGATCGGGACAAGAATAATAATCAGGCCCGAGGTTGCAC (double strand) [PhpdH (PC3) promoter] | – | – | activity (fold induction) [3]: 43 |
